Patent publication US20040053370A1 (Eli Lilly, published 2004)
Ends that are not written are not given here.

Biological target: GLP-1 receptor
Test: cell-based or functional assay

Binder	GLP-1 Receptor Activation
HVEGTFTSDLSSYLEGQAAEEFIAWLVKGRG [Val^8-Leu^16-Glu^26-GLP-1(7-37)OH]	0.23 fold of GLP-1(7-37)OH
HGEGHFTSDVSSYLEGQAAKEFIAWLVKGRG [Gly^8-His^11-GLP-1(7-37)OH]	0.282 fold of GLP-1(7-37)OH
HGEGTFTSDVSSYLEGQAAKEFIEWLVKGRG [Gly^8-Glu^30-GLP-1(7-37)OH]	0.29 fold of GLP-1(7-37)OH
HVEGTFTSDVSSYLEGQAAKEFIAWLVKGGP-NH2 [Val^8-Gly^36-Pro^37-GLP-1(7-37)NH2]	0.53 fold of GLP-1(7-37)OH
HVEGTFTSDVSSYLEKQAAKEFIAWLVKGR-NH2 [Val^8-Lys^22-GLP-1(7-36)NH2]	0.53 fold of GLP-1(7-37)OH
HVEGTFTSDVSSYLEEQAAKEFIAWLVKGR-NH2 [Val^8-Glu^22-GLP-1(7-36)NH2]	1 fold of GLP-1(7-37)OH
HVEGTFTSDVSSYLEGQAAKEFIAWLKVGRG [Val^8-Lys^33-Val^34-GLP-1(7-37)OH]	0.08 fold of GLP-1(7-37)OH
HVEGTFTSDVSSYLEGQAAKEFIAWLVGKRG [Val^8-Gly^34-Lys^35-GLP-1(7-37)OH]	0.34 fold of GLP-1(7-37)OH
HVEGTFTSDVSSYLEGQAAKEFIAWLVEGRG [Val^8-Glu^34-GLP-1(7-37)OH]	0.17 fold of GLP-1(7-37)OH
HVEGTFTSDVSSYLEKQAAKEFIEWLVKGRG [Val^8-Lys^22-Glu^30-GLP-1(7-37)OH]	0.37 fold of GLP-1(7-37)OH
HVEGTFTSDVSSYLEGQAAKEFIAWLVKGRH [Val^8-His^37-GLP-1(7-37)OH]	0.33 fold of GLP-1(7-37)OH
HVEGTFTSDVSSYLEGQHAKEFIAWLVKGRG [Val^8-His^24-GLP-1(7-37)OH]	0.007 fold of GLP-1(7-37)OH
HVEGAFTSDVSSYLEGQAAKEFIAWLVKGRG [Val^8-Ala^11-GLP-1(7-37)OH]	0.021 fold of GLP-1(7-37)OH
HVEGTFTSDVSSYLEGQAAKEFIAWLEKGRG [Val^8-Glu^33-GLP-1(7-37)OH]	0.039 fold of GLP-1(7-37)OH
HVEGKFTSDVSSYLEGQAAKEFIAWLVKGRG [Val^8-Lys^11-GLP-1(7-37)OH]	0.001 fold of GLP-1(7-37)OH
HVEGTFTSDVSSYLEGKAAKEFIAWLVKGRG [Val^8-Lys^23-GLP-1(7-37)OH]	0.18 fold of GLP-1(7-37)OH
HVEGTFTSDVSSYLEPQAAKEFIAWLVKGRG [Val^8-Pro^22-GLP-1(7-37)OH]	0.01 fold of GLP-1(7-37)OH
HVEGTFTSDVSSYLEHQAAKEFIAWLVKGRG [Val^8-His^22-GLP-1(7-37)OH]	0.14 fold of GLP-1(7-37)OH
HVEGTFTSDVSSYLEGQAAKEFIAWLVKHRG [Val^8-His^35-GLP-1(7-37)OH]	0.41 fold of GLP-1(7-37)OH
HVEGTFTSDVSSYLEEKAAKEFIAWLVKGRG [Val^8-Glu^22-Lys^23-GLP-1(7-37)OH]	1.43 fold of GLP-1(7-37)OH
HAEGTFTSDVSSYLEQQAAKEFIAWLVKGRG [Gln^22-GLP-1(7-37)OH]	0.42 fold of GLP-1(7-37)OH
HVEGTFTSDVSSYLEKEAAKEFIAWLVKGRG [Val^8-Lys^22-Glu^23-GLP-1(7-37)OH]	0.35 fold of GLP-1(7-37)OH

Binder	GLP-1 Receptor Activation
HVEGTFTSDVSSYKEGQAAKEFIAWLVKGRG [Val^8-Lys^20-GLP-1(7-37)OH]	0.33 fold of GLP-1(7-37)OH
HVEGTFTSDASSYLEGQAAKEFIAWLVKGRG [Val^8-Ala^16-GLP-1(7-37)OH]	0.112 fold of GLP-1(7-37)OH
HVEGTFTSDVSSYLEAQAAKEFIAWLVKGRG [Val^8-Ala^22-GLP-1(7-37)OH]	0.56 fold of GLP-1(7-37)OH
HVEGTFTSDVSSYLEGQAAKEFIDWLVKGRG [Val^8-Asp^30-GLP-1(7-37)OH]	0.15 fold of GLP-1(7-37)OH
HVEGTFTSDVSSYLEGQAAKEFIAWLVKERG [Val^8-Glu^35-GLP-1(7-37)OH]	0.15 fold of GLP-1(7-37)OH
HVEGTFTSDVSSYLEGQAAKEFIAWLAKGRG [Val^8-Ala^33-GLP-1(7-37)OH]	0.1 fold of GLP-1(7-37)OH
HVEGTFTSDVSSYLEGQAAKEFISWLVKGRG [Val^8-Ser^30-GLP-1(7-37)OH]	0.19 fold of GLP-1(7-37)OH
HVEGTFTSDVSSYLEGQAAKEFIAWLVKPRG [Val^8-Pro^35-GLP-1(7-37)OH]	0.094 fold of GLP-1(7-37)OH
HVEGTFTSDVSSYLEDQAAKEFIAWLVKGRG [Val^8-Asp^22-GLP-1(7-37)OH]	0.4 fold of GLP-1(7-37)OH
HVEGTFTSDVSSYLEGQAAKEFIEWLVKGRG [Val^8-Glu^30-GLP-1(7-37)OH]	0.29 fold of GLP-1(7-37)OH
HVEGTFTSDVSSYLEGQAAKEFIHWLVKGRG [Val^8-His^30-GLP-1(7-37)OH]	0.19 fold of GLP-1(7-37)OH
HVEGTFTSDVSSYLEEQAAKEFIAWLVKGRG [Val^8-Glu^22-GLP-1(7-37)OH]	1.29 fold of GLP-1(7-37)OH
HVEGTFTSDVSSYLEGQAAKEFIAWLVKGEG [Val^8-Glu^36-GLP-1(7-37)OH]	0.11 fold of GLP-1(7-37)OH
HVEGTFTSDVSSYLEGQKAKEFIAWLVKGRG [Val^8-Lys^24-GLP-1(7-37)OH]	0.02 fold of GLP-1(7-37)OH
HVEGTFTSDVSSYLEGQAAKEFIAWLGKGRG [Val^8-Gly^33-GLP-1(7-37)OH]	0.01 fold of GLP-1(7-37)OH
HVEGTFTSDVSSYLEGQAAEEFIAWLVKGRG [Val^8-Glu^26-GLP-1(7-37)OH]	1.5 fold of GLP-1(7-37)OH
HVEGTFTSDESSYLEGQAAKEFIAWLVKGRG [Val^8-Glu^16-GLP-1(7-37)OH]	0.047 fold of GLP-1(7-37)OH
HVEGTFTSDVSSYLEGQAAKEFIAWLVKGHG [Val^8-His^36-GLP-1(7-37)OH]	0.22 fold of GLP-1(7-37)OH
HVEGTFTSDVSSYLEKQAAKEFIAWLVKGRG [Val^8-Lys^22-GLP-1(7-37)OH]	0.58 fold of GLP-1(7-37)OH
HVEGTFTSDVSSYLESQAAKEFIAWLVKGRG [Val^8-Ser^22-GLP-1(7-37)OH]	0.5 fold of GLP-1(7-37)OH
HVEGTFTSDVSSYLEGQAAHEFIAWLVKGRG [Val^8-His^26-GLP-1(7-37)OH]	1.6 fold of GLP-1(7-37)OH
HVEGTFTSDVSSYLEGQAAKHFIAWLVKGRG [Val^8-His^27-GLP-1(7-37)OH]	0.37 fold of GLP-1(7-37)OH

Biological target: GLP-1 receptor
Test: cell-based or functional assay
Remark: another data set of the same source

Binder	GLP-1 Receptor Activation
HVEGTYTSDYSSYLEGQAAKEFIAWLVKGRG [Val^8-Tyr^12-Tyr^16-GLP-1(7-37)OH]	0.7 fold of GLP-1(7-37)OH
HVEGTFTSDWSSYLEEQAVKEFIAWLIKGRG [Val^8-Trp^16-Glu^22-Val^25-Ile^33-GLP-1(7-37)OH]	2.35 fold of GLP-1(7-37)OH
HVEGTYTSDVSSYLEGQAAKEFIAWLVKGR-NH2 [Val^8-Tyr^12-GLP-1(7-36)NH2]	0.52 fold of GLP-1(7-37)OH
HVDGIFTSDYSSYLEEQAAKEFIAWLVKGRG [Val^8-Asp^9-Ile^11-Tyr^16-Glu^22-GLP-1(7-37)OH]	2.02 fold of GLP-1(7-37)OH
HVEGTFTSDVSSYFEEQAAKEFIAWLVKGRG [Val^8-Phe^20-Glu^22-GLP-1(7-37)OH]	1.27 fold of GLP-1(7-37)OH
HVEGTWTSDVSSYLEEQAAKEFIAWLVKGRG [Val^8-Trp^12-Glu^22-GLP-1(7-37)OH]	0.8 fold of GLP-1(7-37)OH
HVEGTYTSDVSSYLEEQAAKEFIAWLVKGRG [Val^8-Tyr^12-Glu^22-GLP-1(7-37)OH]	1.27 fold of GLP-1(7-37)OH
HVEGTFTSDVSSYLEEQALKEFIAWLVKGRG [Val^8-Glu^22-Leu^25-GLP-1(7-37)OH]	1.32 fold of GLP-1(7-37)OH
HVEGTFTSDCSSYLEGQAAKEFIAWLVKGRG [Val^8-Cys^16-Lys^26-GLP-1(7-37)OH]	1.97 fold of GLP-1(7-37)OH
HVEGTFTSDVSSYLEGQALKEFIAWLVKGRG [Val^8-Leu^25-GLP-1(7-37)OH]	0.24 fold of GLP-1(7-37)OH
HVEGTFTSDVSSYLEEQAAKIFIAWLVKGRG [Val^8-Glu^22-Ile^27-GLP-1(7-37)OH]	0.94 fold of GLP-1(7-37)OH
HVEGTFTSDYSSWLEEQAAKEFIAWLVKGRG [Val^8-Tyr^16-Trp^19-Glu^22-GLP-1(7-37)OH]	1.64 fold of GLP-1(7-37)OH
HVEGTFTSDVSSYLEEQAIKEFIAWLVKGRG [Val^8-Glu^22-Ile^25-GLP-1(7-37)OH]	1.46 fold of GLP-1(7-37)OH
HVEGTFTSDLSSYLEGQAAKEFIAWLVKGRG [Val^8-Leu^16-GLP-1(7-37)OH]	0.52 fold of GLP-1(7-37)OH
HGEGTFTSDVSSYLEGQAAKEFIAWLVKGRG [Gly^8-GLP-1(7-37)OH]	0.8 fold of GLP-1(7-37)OH
HVEGTWTSDVSSYLEGQAAKEFIAWLVKGRG [Val^8-Trp^12-GLP-1(7-37)OH]	0.52 fold of GLP-1(7-37)OH
